{"source": "patent US20100291705A1", "about": "“ANTIGEN EXPOSING MICELLE AND UNORDERED AGGREGATE” (EURO-DIAGNOSTICA AB, priority 2007, published 2010)", "molecules": {"B1": {"name": "β2-GPI: protein incubated with bound cardiolipin aggregates to form the cardiolipin-β2-GPI complex (protein, UniProt P02749 20-345, looked up)", "Beta-2-glycoprotein 1": "GRTCPKPDDLPFSTVVPLKTFYEPGEEITYSCKPGYVSRGGMRKFICPLTGLWPINTLKCTPRVCPFAGILENGAVRYTTFEYPNTISFSCNTGFYLNGADSAKCTEEGKWSPELPVCAPIICPPPSIPTFATLRVYKPSAGNNSLYRDTAVFECLPQHAMFGNDTITCTTHGNWTKLPECREVKCPFPSRPDNGFVNYPAKPTLYYKDKATFGCHDGYSLDGPEEIECTKLGNWSAMPSCKASCKVPVKKATVVYQGERVKIQEKFKNGMLHGDKVSFFCKNKEKKCSYTEDAQCIDGTIEVPKCFKEHSSLAFWKTDASDVKPC"}}, "target": "T1, (Homo sapiens, UniProt P02749)", "T1 sequence (P02749 20-345)": "B1 Beta-2-glycoprotein 1", "assay": "Detection of β2-GPI associated to the cardiolipin aggregates with mouse IgG anti-β2-GPI antibody (ELISA)", "assay_type": "binding", "settings": "after washing with 0.05% Tween-20 in PBS", "experimental": "Antigen exposing lipid aggregates were prepared according to example 2 by mixing 90% cardiolipin with 10% PE-bio. The lipid aggregates were then adsorbed on a 96-well streptavidin coated ELISA plate (Eurodiagnostica AB) at concentration 90 μg/ml. The plate was incubated for 1 h at room temperature. The plate was washed three times with 0.05% Tween-20 in PBS and then incubated with or without β2-GPI for 30 minutes.\nTo determine the amount β2-GPI bound to cardiolipin aggregates a mouse IgG anti-β2-GPI antibody was used. This antibody was detected with an alkaline phosphatase conjugated anti-mouse IgG antibody (Sigma-Aldrich).\nAll the antibodies were diluted in PBS with 1% BSA and incubated for 1 h at RT. The plate was developed with alkaline phosphatase yellow liquid system for ELISA (Sigma-Aldrich) and absorbance 405 nm determined after 10-30 min. Between each incubation step the plate was washed three times with 0.05% Tween-20 in PBS."}
{"molecule": "B1", "values": [{"measurement": "β2-GPI bound to cardiolipin aggregates (FIG. 8)", "value": "remained associated with cardiolipin after washing with 0.05% Tween-20 in PBS"}]}
